In US20190177380, “SYNTHETIC MBNL PROTEINS FOR TREATMENT OF REPEAT EXPANSION DISEASE” (University of Florida Research Foundation, Incorporated, published 2019):

How the values were obtained:
[1] = molecular target: T1, Xlrbpa dsRBD2 (printed Xlbpra) (Xenopus laevis) (UniProt Q91836); conditions: CITED; isolated dsRBD2; cited from earlier work
T1 sequence: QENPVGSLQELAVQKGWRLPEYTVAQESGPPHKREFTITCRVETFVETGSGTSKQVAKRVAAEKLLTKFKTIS

[2] = molecular target: T2, TRBP dsRBD2 (TARBP2) (Homo sapiens) (UniProt Q15633); conditions: CITED; isolated dsRBD2; cited from earlier work
T2 sequence: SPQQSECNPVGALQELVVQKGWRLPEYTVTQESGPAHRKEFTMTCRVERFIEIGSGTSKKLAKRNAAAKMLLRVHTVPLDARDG

[3] = molecular target: T3, MBNL1(3-4,3-4) (Homo sapiens); assay: EMSA; 115 mM NaCl, 20 mM Tris pH 7.5, 5 mM MgCl2, heparin, room temperature; apparent Kd; conditions: label: 5'-32P; short hairpin (predicted)
T3 chain: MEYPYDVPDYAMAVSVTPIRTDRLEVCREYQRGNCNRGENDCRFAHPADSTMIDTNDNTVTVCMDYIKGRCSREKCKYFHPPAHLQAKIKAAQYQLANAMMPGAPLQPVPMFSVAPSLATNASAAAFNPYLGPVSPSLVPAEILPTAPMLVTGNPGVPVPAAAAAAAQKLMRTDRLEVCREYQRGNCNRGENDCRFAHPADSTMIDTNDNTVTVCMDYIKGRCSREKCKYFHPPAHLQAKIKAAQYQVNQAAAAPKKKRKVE
Source text: (§1) All synthetic MBNL1 proteins were expressed and purified as N-terminal glutathione S-transferase (GST) fusions (FIG. 4A). These proteins were then used in electrophoretic mobility shift assays (EMSAs) with CUG₄ RNA substrate. The fraction of radiolabeled RNA bound to the protein was used to determine an apparent KD (dissociation constant). […] (FIG. 4B).
(§2) All RNA substrates were ordered from IDT (Coralville, Iowa) or Dharmacon (Lafayette, Colo.) and 5′ end-labelled using T4 PNK (NEB, Ipswich, Mass.) with [γ-³²P] ATP. All RNAs were purified on 10% polyacrylamide denaturing gels. Prior to incubation with protein, these RNAs were denatured by incubation at 95° C. for 2 minutes followed by a 5 minute incubation on ice. Once cooled the RNA was mixed with increasing concentrations of protein (final volume=10 μl) to yield final reaction conditions of 115 mM NaCl, 20 mM Tris pH 7.5, 1 mM β-ME, 0.01 mM EDTA, 10% glycerol, 5 mM MgCl₂, 0.1 mg/ml heparin, 2 mg/ml bovine serum albumin (BSA), and 0.02% xylene cyanol. […] Binding curves were quantified using ImageQuant software (GE Healthcare Life Sciences, Pittsburgh, Pa.). The fraction of RNA bound was calculated as the ratio of all RNA-protein complexes divided by total RNA signal in each lane. The apparent Kd was then determined using the following equation: fbound=fₘₐₓ([MBNL1]/([MBNL1+Kd)).

[4] = molecular target: T4, MBNL1(1-2,1-2) (Homo sapiens); assay: as above; conditions: label: 5'-32P; short hairpin (predicted)
T4 chain: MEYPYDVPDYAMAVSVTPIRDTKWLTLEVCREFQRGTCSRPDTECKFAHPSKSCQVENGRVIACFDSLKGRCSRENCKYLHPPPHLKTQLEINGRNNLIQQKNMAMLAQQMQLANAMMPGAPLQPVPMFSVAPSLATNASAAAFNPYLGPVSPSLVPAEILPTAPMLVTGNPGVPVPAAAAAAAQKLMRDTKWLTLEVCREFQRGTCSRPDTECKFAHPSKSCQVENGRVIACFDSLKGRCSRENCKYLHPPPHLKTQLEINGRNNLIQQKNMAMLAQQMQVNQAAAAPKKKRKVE
Source text: as §1, §2

[5] = molecular target: T5, WT-MBNL1 (truncated, aa 1-260 with HA tag and SV40 NLS) (Homo sapiens, UniProt Q9NR56 SEQ:14-272); assay: EMSA; 115 mM NaCl, 20 mM Tris pH 7.5, 5 mM MgCl2, heparin, room temperature; apparent Kd; repeated with another batch in FIG. 10C; conditions: label: 5'-32P; short hairpin (predicted)
T5 chain: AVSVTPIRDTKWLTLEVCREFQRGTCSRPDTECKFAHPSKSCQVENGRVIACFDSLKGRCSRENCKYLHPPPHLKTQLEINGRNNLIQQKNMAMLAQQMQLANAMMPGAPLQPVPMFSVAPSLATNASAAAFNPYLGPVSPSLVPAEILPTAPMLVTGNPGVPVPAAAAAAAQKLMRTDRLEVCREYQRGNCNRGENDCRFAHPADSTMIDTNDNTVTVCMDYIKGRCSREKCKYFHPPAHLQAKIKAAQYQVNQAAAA
Source text: as §1, §2

In the case of 30 bp synthetic dsRNA, the Kd [1] is given as 11 nM.

For HIV TAR RNA, the Kd [2] is listed as 59 nM.

Molecule GCUGCUGUUCGCUGCUG (ssRNA) [CUG4] has a Kd [3] of 257 nM, a Kd [4] of 269 nM and a Kd [5] of 196 nM.
